This is an account of results in patent US10704030B2, “P450-BM3 variants with improved activity” (Codexis, Inc., priority 2015, dated 2020).

Holding throughout (type): biochemical
A short description of data set [1]: Validation of generalist properties: oxidation of diclofenac by lyophilized P450-BM3 variant, UPLC-MS. The settings on record: [Diclofenac] = 1 mM; for TON: TON = [substrate]*% conversion/[P450]; for FIOPC (B02): fold improvement over parent MCYP-P1.2-B02. On the procedure: (§1) For the production of lyophilized protein powders, LB agar plates supplemented with chloramphenicol (30 μg/mL) were streaked with E. coli containing a desired B. megaterium P450-BM3 variant in an IPTG-inducible vector. The plates were grown at 37° C. for 16 hrs before single clones were selected to inoculate a 15 mL Falcon™ tube (Fisher) containing TB media (3 mL) supplemented with chloramphenicol (30 μg/mL). The tube was shaken at 200 rpm, 30° C., and 85% humidity for 20-24 h to grow the cultures to saturation. Then, 2.5 mL of the overnight culture was used to inoculate sterile 1 L flasks containing TB medium (250 mL) supplemented with chloramphenicol (30 μg/mL), trace element solution (as described above), and 0.05 g/L ammonium iron (III) citrate. After being shaken at 250 rpm, 30° C., and 85% humidity to an OD600 of 0.8-1.2, P450 expression was induced by addition of IPTG (500 uM) and the heme precursor 5-aminolevulinic acid (5-ALA) to a final concentration of 500 uM. The cultures were grown for additional 20-24 hours and centrifuged in pre-weighed 250 mL centrifuge bottles for 20 minutes at 4000 rpm, 4° C. The supernatants were discarded, and the centrifuge bottles containing cell pellets were weighed. The pellets were resuspended in 50 mM potassium phosphate buffer with 2 mM DTT, pH 8.0 (5 mL of buffer per gram of cell pellet). The cells were lysed using a microfluidizer homogenizer, and the suspensions of cells and lysate were collected in sterile 50 mL centrifuge tubes. The samples were centrifuged for 30 minutes at 10,000 rpm, 4° C. The clarified lysate was collected into a plastic petri plate and frozen at −80° C. prior to lyophilization. The enzyme-containing lysates were lyophilized using standard methods known in the art.
(§2) Enzyme stocks (˜12 μM) were prepared by dissolving ˜20 mg of each enzyme in 100 mM potassium phosphate buffer, pH 8.0 (1 mL). The concentration of each enzyme stock solution was determined by the UV-visible absorption spectroscopy (after centrifugation to remove particulates) and diluted to standardize at 12 μM heme protein. Substrate solutions were prepared by dissolving each substrate in DMSO to reach a final concentration of 20 mM or 40 mM. Reaction mix (235 μL) followed by enzyme solution (50 μL) was added to the plates. The substrate stock solution was added to the enzyme solutions (15 μL at the two different concentrations). Each reaction contained 100 mM potassium phosphate, 1.0 mM NADP+, 25 mM glucose, 0.5 mg/mL glucose dehydrogenase, 5% DMSO and substrate at 1 or 2 mM. Loratadine, imatinib, and gefitinib (See, FIG. 1) were selected as substrates in addition to diclofenac to validate improved BM3 variants. The reactions were shaken at 450 rpm at 30° C. over 24 hours. All reactions were diluted with acetonitrile to a final concentration of 0.5 mM substrate. The plates were then centrifuged at 3,000 g for 1 hour at 20° C. The supernatant was diluted 1:1 with acetonitrile, filtered using a 0.4 micron filter, and analyzed by UPLC-MS.
(§3) For UPLC-MS analysis, the quenched and filtered reactions were transferred to 96-well HTP plates for analysis by UPLC on a Waters Acquity H-class system equipped with an autosampler. 1 uL of quenched sample was injected onto an Acquity UPLC HSS T3 column, 100 Å, (1.8 um; 2.1×100 mm). The column was eluted at a constant flow rate of 0.6 mL/min; conditions with solvent A (0.05% trifluoroacetic acid v/v, in H2O) and solvent B (0.05% trifluoroacetic acid v/v, in acetonitrile) used to elute the products of the reaction were: 0-2 min, A/B 95:5; 2-2.9 min, A/B 5:95; 2.9-3 min, A/B 95:5; 3-3.5 min, A/B 95:5. Column eluent was monitored by PDA (200-600 nm) prior to MS analysis in positive ESI mode (desolvation temperature 350° C., 3.25 kV spray voltage, cone voltage 25V). The column eluent was diverted to waste for the first 0.7 minutes of the run. For the remainder of the LC run, both MS (m/z 95-600 scan range) and MS/MS were collected. […]

A short description of data set [2]: Validation of generalist properties: oxidation of loratadine by lyophilized P450-BM3 variant, UPLC-MS. The settings on record: [Loratadine] = 1 mM; for TON: TON = [substrate]*% conversion/[P450]; for FIOPC (B02): fold improvement over parent MCYP-P1.2-B02. The procedure:
as §1, §2, §3

Data set [3] is described as follows: Validation of generalist properties: oxidation of imatinib by lyophilized P450-BM3 variant, UPLC-MS. The settings on record: [Imatinib] = 1 mM; for TON: TON = [substrate]*% conversion/[P450]; for FIOPC (B02): fold improvement over parent MCYP-P1.2-B02. On the procedure:
as §1, §2, §3

Data set [4] can be described thus: Validation of generalist properties: oxidation of gefitinib by lyophilized P450-BM3 variant, UPLC-MS. The settings on record: [Gefitinib] = 1 mM; for TON: TON = [substrate]*% conversion/[P450]; for FIOPC (B02): fold improvement over parent MCYP-P1.2-B02. On the procedure: as §1, §2, §3

B1: Variant 9: P450-BM3 variant of SEQ ID NO: 8: Y52F; D232H; E349K; E619D; D722S; R762H (protein)
chain: MTIKEMPQPKTFGELKNLPLLNTDKPVQALMKIADELGEIFKFEAPGRVTRFLSSQRLIKEACDESRFDKNLSQALKFARDFAGDGLFTSWTHEKNWKKAHNILLPSFSQQAMKGYHAMMVDIAVQLVQKWERLNADEYIEVPEDMTRLTLDTIGLCGFNYRFNSFYRDQPHPFIISMIRALDEVMNKLQRANPDDPAYDENKRQFQEDIKVMNDLVDKIIADRKASGEQSHDLLTQMLNGKDPETGEPLDDGNISYQIITFLIAGHETTSGLLSFALYFLVKNPHVLQKVAEEATRVLVDPVPSYKQVKQLKYVGMVLNEALRLWPTAPAFSLYAKEDTVLGGEYPLKKGDEVMVLIPQLHRDKTIWGDDVEEFRPERFENPSAIPQHAFKPFGNGQRACIGQQFALHEATLVLGMMLKHFDFEDHTNYELDIKETLTLKPEGFVVKAKSKKIPLGGIPSPSTEQSAKKVRKKAENAHNTPLLVLYGSNMGTAEGTARDLADIAMSKGFAPQVATLDSHAGNLPREGAVLIVTASYNGHPPDNAKQFVDWLDQASADEVKGVRYSVFGCGDKNWATTYQKVPAFIDETLAAKGAENIADRGEADASDDFEGTYEEWRDHMWSDVAAYFNLDIENSEDNKSTLSLQFVDSAADMPLAKMHGAFSTNVVASKELQQPGSARSTRHLEIELPKEASYQEGDHLGVIPRNYEGIVNRVTARFGLSASQQIRLEAEEEKLAHLPLAKTVSVEELLQYVELQDPVTHTQLRAMAAKTVCPPHKVELEALLEKQAYKEQVLAKRLTMLELLEKYPACEMKFSEFIALLPSIRPRYYSISSSPRVDEKQASITVSVVSGEAWSGYGEYKGIASNYLAELQEGDTITCFISTPQSEFTLPKDPETPLIMVGPGTGVAPFRGFVQARKQLKEQGQSLGEAHLYFGCRSPHEDYLYQEELENAQSEGIITLHTAFSRMPNQPKTYVQHVMEQDGKKLIELLDQGAHFYICGDGSQMAPAVEATLMKSYADVHQVSEADARLWLQQLEEKGRYAKDVWAG
modifications: P450_BM3
notes: D232H; E349K; E619D; D722S; R762H
In the case of B1, the “% Conv.” value in data set [1] is “++++ (15.01-20.00)”; in data set [2] it was “++ (5.01-10.00)”; in data set [3], “++++ (15.01-20.00)”; in data set [4] it was “+ (0-5.00)”. The TON result in data set [1] is “‡‡‡ (5001-10000)”; in data set [2], “‡‡ (1001-5000)”; in data set [3], “‡‡‡‡ (10000-50000)”; in data set [4] it was “‡ (0-1000)”. Besides, the “FIOPC (B02)” value in data set [1], in data set [2], in data set [3] and in data set [4] was “* (0.0-3.0)” throughout.

B2: Variant 10: P450-BM3 variant of SEQ ID NO: 8: K32R; Y52F; K95P; Q111R; G115R; I176V; L216Y; D232H; P347T; E349T; M491A; T577A; E619D; D722S (protein)
chain: MTIKEMPQPKTFGELKNLPLLNTDKPVQALMRIADELGEIFKFEAPGRVTRFLSSQRLIKEACDESRFDKNLSQALKFARDFAGDGLFTSWTHEPNWKKAHNILLPSFSQRAMKRYHAMMVDIAVQLVQKWERLNADEYIEVPEDMTRLTLDTIGLCGFNYRFNSFYRDQPHPFIVSMIRALDEVMNKLQRANPDDPAYDENKRQFQEDIKVMNDYVDKIIADRKASGEQSHDLLTQMLNGKDPETGEPLDDGNISYQIITFLIAGHETTSGLLSFALYFLVKNPHVLQKVAEEATRVLVDPVPSYKQVKQLKYVGMVLNEALRLWPTAPAFSLYAKEDTVLGGEYTLTKGDEVMVLIPQLHRDKTIWGDDVEEFRPERFENPSAIPQHAFKPFGNGQRACIGQQFALHEATLVLGMMLKHFDFEDHTNYELDIKETLTLKPEGFVVKAKSKKIPLGGIPSPSTEQSAKKVRKKAENAHNTPLLVLYGSNAGTAEGTARDLADIAMSKGFAPQVATLDSHAGNLPREGAVLIVTASYNGHPPDNAKQFVDWLDQASADEVKGVRYSVFGCGDKNWAATYQKVPAFIDETLAAKGAENIADRGEADASDDFEGTYEEWRDHMWSDVAAYFNLDIENSEDNKSTLSLQFVDSAADMPLAKMHGAFSTNVVASKELQQPGSARSTRHLEIELPKEASYQEGDHLGVIPRNYEGIVNRVTARFGLSASQQIRLEAEEEKLAHLPLAKTVSVEELLQYVELQDPVTRTQLRAMAAKTVCPPHKVELEALLEKQAYKEQVLAKRLTMLELLEKYPACEMKFSEFIALLPSIRPRYYSISSSPRVDEKQASITVSVVSGEAWSGYGEYKGIASNYLAELQEGDTITCFISTPQSEFTLPKDPETPLIMVGPGTGVAPFRGFVQARKQLKEQGQSLGEAHLYFGCRSPHEDYLYQEELENAQSEGIITLHTAFSRMPNQPKTYVQHVMEQDGKKLIELLDQGAHFYICGDGSQMAPAVEATLMKSYADVHQVSEADARLWLQQLEEKGRYAKDVWAG
modifications: P450_BM3
notes: Y52F; K95P; Q111R; G115R; I176V; L216Y; D232H; P347T; E349T; M491A; T577A; E619D; D722S
Turning to B2, the “% Conv.” value in data set [1] was “+++ (10.01-15.00)”; in data set [2] it was “++ (5.01-10.00)”; in data set [3] it was “++++ (15.01-20.00)”; in data set [4], “++ (5.01-10.00)”. Besides, the TON entry is reported as “‡‡‡ (5001-10000)” in data set [1], “‡‡ (1001-5000)” in data set [2], “‡‡‡‡ (10000-50000)” in data set [3] and “‡‡ (1001-5000)” in data set [4]. The “FIOPC (B02)” value is given as “* (0.0-3.0)” in data set [1], “* (0.0-3.0)” in data set [2], “** (3.01-5.0)” in data set [3] and “**** (10.01-15.00)” in data set [4].
